Experimental findings from patent publication US20230192818A1 (TWIST BIOSCIENCE, published 2023) are described below.

Like-named read-outs stand apart in the source and are kept apart here.

Assay [1] has as its target T1, Antibody 178-08_His 501.V2 (27079) (SARS-CoV-2, UniProt P0DTC2 16-685). As to the kind of experiment: SPR (Carterra).
The target in assay [2] is T1, Antibody 178-08_His 501.V2 (27079). As to the kind of experiment: SPR (Carterra). This is another data set of the same source.

B1: 3-31 (Fc fusion)
chain: EVQLVESGGGLVQPGGSLRLSCAASGSTFSINAMGWFRQAPGKEREFVAGITSSGGYTNYADSVKGRFTISADNSKNTAYLQMNSLKPEDTAVYYCAADGVPEYSDYASGPVWGQGTLVTVSS
notes: also called Antibody 3-31
The term Kd denotes the free concentration of one partner at which half of the binding sites on the other are occupied at equilibrium, for simple one-to-one binding. High values mean a looser complex, low ones a tighter complex. On to B1, for which the dissociation constant (Kd) in assay [1] and in assay [2] was 96.7 µM throughout.
